# Results published in article PMC11574045, “A cofactor-induced repressive type of transcription factor condensation can be induced by synthetic peptides to suppress tumorigenesis” (The EMBO Journal, 2024).
# Tested on: HEK293FT cells transfected with TF library
# Assay: Screening of TF condensates based on fluorescent puncta
# Assay type: cell-based
# Conditions: Figure 1B numerical data; TF library screen, one value per transcriptional factor
# Procedure, shortened: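 Condensate formation is scored as Alexa 488-labelled puncta after Flag- or GAL4-tag immunostaining of fixed HEK293FT cells expressing individual TFs, with a 12 h glucose-free or glucose-containing culture preceding fixation.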
row,Molecule,Z score of condensed fraction
1,"RYBP (protein, UniProt Q8N488 1-228, looked up) RING1 and YY1-binding protein: MTMGDKKSPTRPKRQAKPAADEGFWDCSVCTFRNSAEAFKCSICDVRKGTSTRKPRINSQLVAQQVAQQYATPPPPKKEKKEKVEKQDKEKPEKDKEISPSVTKKNTNKKTKPKSDILKDPPSEANSIQSANATTKTSETNHTSRPRLKNVDRSTAQQLAVTVGNVTVIITDFKEKTRSSSTSSSTVTSSAGSEQQNQSSSGSESTDKGSSRSSTPKGDMSAVNDESF",-0.5834
2,"BATF3 (protein, UniProt Q9NR55 1-127, looked up) Basic leucine zipper …: MSQGLPAAGSVLQRSVAAPGNQPQPQPQQQSPEDDDRKVRRREKNRVAAQRSRKKQTQKADKLHEEYESLEQENTMLRREIGKLTEELKHLTEALKEHEKMCPLLLCPMNFVPVPPRPDPVAGCLPR",-0.4698
3,"RSF1 (protein, UniProt Q96T23 1-1441, looked up) Remodeling and spacing factor …: MATAAAAAAVMAPPGCPGSCPNFAVVCSFLERYGPLLDLPELPFPELERVLQAPPPDVGNGEVPKELVELHLKLMRKIGKSVTADRWEKYLIKICQEFNSTWAWEMEKKGYLEMSVECKLALLKYLCECQFDDNLKFKNIINEEDADTMRLQPIGRDKDGLMYWYQLDQDHNVRMYIEEQDDQDGSSWKCIVRNRNELAETLALLKAQIDPVLLKNSSQQDNSSRESPSLEDEETKKEEETPKQEEQKESEKMKSEEQPMDLENRSTANVLEETTVKKEKEDEKELVKLPVIVKLEKPLPENEEKKIIKEESDSFKENVKPIKVEVKECRADPKDTKSSMEKPVAQEPERIEFGGNIKSSHEITEKSTEETEKLKNDQQAKIPLKKREIKLSDDFDSPVKGPLCKSVTPTKEFLKDEIKQEEETCKRISTITALGHEGKQLVNGEVSDERVAPNFKTEPIETKFYETKEESYSPSKDRNIITEGNGTESLNSVITSMKTGELEKETAPLRKDADSSISVLEIHSQKAQIEEPDPPEMETSLDSSEMAKDLSSKTALSSTESCTMKGEEKSPKTKKDKRPPILECLEKLEKSKKTFLDKDAQRLSPIPEEVPKSTLESEKPGSPEAAETSPPSNIIDHCEKLASEKEVVECQSTSTVGGQSVKKVDLETLKEDSEFTKVEMDNLDNAQTSGIEEPSETKGSMQKSKFKYKLVPEEETTASENTEITSERQKEGIKLTIRISSRKKKPDSPPKVLEPENKQEKTEKEEEKTNVGRTLRRSPRISRPTAKVAEIRDQKADKKRGEGEDEVEEESTALQKTDKKEILKKSEKDTNSKVSKVKPKGKVRWTGSRTRGRWKYSSNDESEGSGSEKSSAASEEEEEKESEEAILADDDEPCKKCGLPNHPELILLCDSCDSGYHTACLRPPLMIIPDGEWFCPPCQHKLLCEKLEEQLQDLDVALKKKERAERRKERLVYVGISIENIIPPQEPDFSEDQEEKKKDSKKSKANLLERRSTRTRKCISYRFDEFDEAIDEAIEDDIKEADGGGVGRGKDISTITGHRGKDISTILDEERKENKRPQRAAAARRKKRRRLNDLDSDSNLDEEESEDEFKISDGSQDEFVVSDENPDESEEDPPSNDDSDTDFCSRRLRRHPSRPMRQSRRLRRKTPKKKYSDDDEEEESEENSRDSESDFSDDFSDDFVETRRRRSRRNQKRQINYKEDSESDGSQKSLRRGKEIRRVHKRRLSSSESEESYLSKNSEDDELAKESKRSVRKRGRSTDEYSEADEEEEEEEGKPSRKRLHRIETDEEESCDNAHGDANQPARDSQPRVLPSEQESTKKPYRIESDEEEDFENVGKVGSPLDYSLVDLPSTNGQSPGKAIENLIGKPTEKSQTPKDNSTASASLASNGTSGGQEAGAPEEEEDELLRVTDLVDYVCNSEQL",-1.08
4,"RNF2 (protein, UniProt Q99496 2-336, looked up) E3 ubiquitin-protein ligase …: SQAVQTNGTQPLSKTWELSLYELQRTPQEAITDGLEIVVSPRSLHSELMCPICLDMLKNTMTTKECLHRFCADCIITALRSGNKECPTCRKKLVSKRSLRPDPNFDALISKIYPSRDEYEAHQERVLARINKHNNQQALSHSIEEGLKIQAMNRLQRGKKQQIENGSGAEDNGDSSHCSNASTHSNQEAGPSNKRTKTSDDSGLELDNNNAAMAIDPVMDGASEIELVFRPHPTLMEKDDSAQTRYIKTSGNATVDHLSKYLAVRLALEELRSKGESNQMNLDTASEKQYTIYIATASGQFTVLNGSFSLELVSEKYWKVNKPMELYYAPTKEHK",-0.7099
5,"RXRA (protein, UniProt P19793 1-462, looked up) Retinoic acid receptor …: MDTKHFLPLDFSTQVNSSLTSPTGRGSMAAPSLHPSLGPGIGSPGQLHSPISTLSSPINGMGPPFSVISSPMGPHSMSVPTTPTLGFSTGSPQLSSPMNPVSSSEDIKPPLGLNGVLKVPAHPSGNMASFTKHICAICGDRSSGKHYGVYSCEGCKGFFKRTVRKDLTYTCRDNKDCLIDKRQRNRCQYCRYQKCLAMGMKREAVQEERQRGKDRNENEVESTSSANEDMPVERILEAELAVEPKTETYVEANMGLNPSSPNDPVTNICQAADKQLFTLVEWAKRIPHFSELPLDDQVILLRAGWNELLIASFSHRSIAVKDGILLATGLHVHRNSAHSAGVGAIFDRVLTELVSKMRDMQMDKTELGCLRAIVLFNPDSKGLSNPAEVEALREKVYASLEAYCKHKYPEQPGRFAKLLLRLPALRSIGLKCLEHLFFFKLIGDTPIDTFLMEMLEAPHQMT",-0.874
6,"RXRG (protein, UniProt P48443 1-463, looked up) Retinoic acid receptor …: MYGNYSHFMKFPAGYGGSPGHTGSTSMSPSAALSTGKPMDSHPSYTDTPVSAPRTLSAVGTPLNALGSPYRVITSAMGPPSGALAAPPGINLVAPPSSQLNVVNSVSSSEDIKPLPGLPGIGNMNYPSTSPGSLVKHICAICGDRSSGKHYGVYSCEGCKGFFKRTIRKDLIYTCRDNKDCLIDKRQRNRCQYCRYQKCLVMGMKREAVQEERQRSRERAESEAECATSGHEDMPVERILEAELAVEPKTESYGDMNMENSTNDPVTNICHAADKQLFTLVEWAKRIPHFSDLTLEDQVILLRAGWNELLIASFSHRSVSVQDGILLATGLHVHRSSAHSAGVGSIFDRVLTELVSKMKDMQMDKSELGCLRAIVLFNPDAKGLSNPSEVETLREKVYATLEAYTKQKYPEQPGRFAKLLLRLPALRSIGLKCLEHLFFFKLIGDTPIDTFLMEMLETPLQIT",0.0107
7,"RNF6 (protein, UniProt Q9Y252 1-685, looked up) E3 ubiquitin-protein ligase …: MNQSRSRSDGGSEETLPQDHNHHENERRWQQERLHREEAYYQFINELNDEDYRLMRDHNLLGTPGEITSEELQQRLDGVKEQLASQPDLRDGTNYRDSEVPRESSHEDSLLEWLNTFRRTGNATRSGQNGNQTWRAVSRTNPNNGEFRFSLEIHVNHENRGFEIHGEDYTDIPLSDSNRDHTANRQQRSTSPVARRTRSQTSVNFNGSSSNIPRTRLASRGQNPAEGSFSTLGRLRNGIGGAAGIPRANASRTNFSSHTNQSGGSELRQREGQRFGAAHVWENGARSNVTVRNTNQRLEPIRLRSTSNSRSRSPIQRQSGTVYHNSQRESRPVQQTTRRSVRRRGRTRVFLEQDRERERRGTAYTPFSNSRLVSRITVEEGEESSRSSTAVRRHPTITLDLQVRRIRPGENRDRDSIANRTRSRVGLAENTVTIESNSGGFRRTISRLERSGIRTYVSTITVPLRRISENELVEPSSVALRSILRQIMTGFGELSSLMEADSESELQRNGQHLPDMHSELSNLGTDNNRSQHREGSSQDRQAQGDSTEMHGENETTQPHTRNSDSRGGRQLRNPNNLVETGTLPILRLAHFFLLNESDDDDRIRGLTKEQIDNLSTRHYEHNSIDSELGKICSVCISDYVTGNKLRQLPCMHEFHIHCIDRWLSENCTCPICRQPVLGSNIANNG",-1.108
8,"RUNX3 (protein, UniProt Q13761 1-415, looked up) Runt-related transcription …: MRIPVDPSTSRRFTPPSPAFPCGGGGGKMGENSGALSAQAAVGPGGRARPEVRSMVDVLADHAGELVRTDSPNFLCSVLPSHWRCNKTLPVAFKVVALGDVPDGTVVTVMAGNDENYSAELRNASAVMKNQVARFNDLRFVGRSGRGKSFTLTITVFTNPTQVATYHRAIKVTVDGPREPRRHRQKLEDQTKPFPDRFGDLERLRMRVTPSTPSPRGSLSTTSHFSSQPQTPIQGTSELNPFSDPRQFDRSFPTLPTLTESRFPDPRMHYPGAMSAAFPYSATPSGTSISSLSVAGMPATSRFHHTYLPPPYPGAPQNQSGPFQANPSPYHLYYGTSSGSYQFSMVAGSSSGGDRSPTRMLASCTSSAASVAAGNLMNPSLGGQSDGVEADGSHSNSPTALSTPGRMDEAVWRPY",-0.4732
9,"BBX (protein, UniProt Q8WY36 1-941, looked up) HMG box transcription factor …: MKGSNRNKDHSAEGEGVGKRPKRKCLQWHPLLAKKLLDFSEEEEEEDEEEDIDKVQLLGADGLEQDVGETEDDESPEQRARRPMNAFLLFCKRHRSLVRQEHPRLDNRGATKILADWWAVLDPKEKQKYTDMAKEYKDAFMKANPGYKWCPTTNKPVKSPTPTVNPRKKLWAFPSDSSRDLPSPKKAKTEEMPQLNFGMADPTQMGGLSMLLLAGEHALGTPEVSSGTCRPDVSESPELRQKSPLFQFAEISSSTSHSDASTKQCQTSALFQFAEISSNTSQLGGAEPVKRCGKSALFQLAEMCLASEGMKMEESKLIKAKESDGGRIKELEKGKEEKEIKMEKTDETRLQKEAEFEKSAKENLRDSKELRNFEALQIDDIMAIKMEDPKEIRKEELEEDHKCSHFPDFSYSASSKIIISDVPSRKDHMCHPHGIMIIEDPAALNKPEKLKKKKKKSKMDRHGNDKSTPKKTCKKRQSSESDIESVIYTIEAVAKGDWGIEKLGDTPRKKVRTSSSGKGSILDAKPPKKKVKSREKKMSKEKSSDTTKESRPPDFISISASKNISGETPEGIKAEPLTPMEDALPPSLSGQAKPEDSDCHRKIETCGSRKSERSCKGALYKTLVSEGMLTSLRANVDRGKRSSGKGNSSDHEGCWNEESWTFSQSGTSGSKKFKKTKPKEDCLLGSAKLDEEFEKKFNSLPQYSPVTFDRKCVPVPRKKKKTGNVSSEPTKTSKGPFQSQKKNLFHKIVSKYKHKKEKPNVPEKGSGDKWSNKQLFLDAIHPTEAIFSEDRNTMEPVHKVKNIPSIFNTPEPTTTQEPLVGSQKRKARKTKITHLVRTADGRVSPAGGTLDDKPKEQLQRSLPKATETDCNDKCSHNTEVGETRSSTPEMPAVSAFFSLAALAEVAAMENVHRGQRSTPLTHDGQPKEMPQAPVLISCADQ",1.56
10,"ROG (protein, UniProt Q9Y2Y4 1-487, looked up) Zinc finger and BTB …: MSLPPIRLPSPYGSDRLVQLAARLRPALCDTLITVGSQEFPAHSLVLAGVSQQLGRRGQWALGEGISPSTFAQLLNFVYGESVELQPGELRPLQEAARALGVQSLEEACWRARGDRAKKPDPGLKKHQEEPEKPSRNPERELGDPGEKQKPEQVSRTGGREQEMLHKHSPPRGRPEMAGATQEAQQEQTRSKEKRLQAPVGQRGADGKHGVLTWLRENPGGSEESLRKLPGPLPPAGSLQTSVTPRPSWAEAPWLVGGQPALWSILLMPPRYGIPFYHSTPTTGAWQEVWREQRIPLSLNAPKGLWSQNQLASSSPTPGSLPQGPAQLSPGEMEESDQGHTGALATCAGHEDKAGCPPRPHPPPAPPARSRPYACSVCGKRFSLKHQMETHYRVHTGEKPFSCSLCPQRSRDFSAMTKHLRTHGAAPYRCSLCGAGCPSLASMQAHMRGHSPSQLPPGWTIRSTFLYSSSRPSRPSTSPCCPSSSTT",-0.6823
